The source of these data is article PMC4458174 (DNA repair, 2015).

The target of this test is T1, mouse Myh (mMyh), His-tagged (mouse, UniProt Q99P21 1-515).
T1 sequence (looked up): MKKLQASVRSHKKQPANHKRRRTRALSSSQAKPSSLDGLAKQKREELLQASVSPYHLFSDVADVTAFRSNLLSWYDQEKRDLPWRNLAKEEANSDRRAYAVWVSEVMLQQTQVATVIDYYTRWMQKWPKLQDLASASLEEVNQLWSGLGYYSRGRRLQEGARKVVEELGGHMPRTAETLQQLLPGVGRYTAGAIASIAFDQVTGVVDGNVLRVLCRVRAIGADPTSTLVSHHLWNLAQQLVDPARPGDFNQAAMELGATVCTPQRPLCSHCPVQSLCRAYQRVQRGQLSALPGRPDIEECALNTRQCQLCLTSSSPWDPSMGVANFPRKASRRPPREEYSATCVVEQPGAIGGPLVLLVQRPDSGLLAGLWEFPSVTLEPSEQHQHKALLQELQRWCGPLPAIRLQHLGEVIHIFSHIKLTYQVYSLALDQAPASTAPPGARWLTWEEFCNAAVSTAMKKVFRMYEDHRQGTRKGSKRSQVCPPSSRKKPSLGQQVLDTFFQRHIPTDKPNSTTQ
In words: pull-down.

Where a chain is given by its changes, count along the chain named. Names may count otherwise.

B1: GST-hHus1N(-) (residues 1-133) (domain or fragment, human, UniProt O60921 1-133, looked up)
chain: MKFRAKIVDGACLNHFTRISNMIAKLAKTCTLRISPDKLNFILCDKLANGGVSMWCELEQENFFNEFQMEGVSAENNEIYLELTSENLSRALKTAQNARALKIKLTNKHFPCLTVSVELLSMSSSSRIVTHDI
Take B1: the binding result was “binds”.

B2: GST-hHus1N (residues 1-146) (domain or fragment, human, UniProt O60921 1-146, looked up)
chain: MKFRAKIVDGACLNHFTRISNMIAKLAKTCTLRISPDKLNFILCDKLANGGVSMWCELEQENFFNEFQMEGVSAENNEIYLELTSENLSRALKTAQNARALKIKLTNKHFPCLTVSVELLSMSSSSRIVTHDIPIKVIPRKLWKDL
In the case of B2, the binding result is “binds”.

B3: GST-tagged hHus1 (wild type) (natural protein, human, UniProt O60921 1-280, looked up)
chain: MKFRAKIVDGACLNHFTRISNMIAKLAKTCTLRISPDKLNFILCDKLANGGVSMWCELEQENFFNEFQMEGVSAENNEIYLELTSENLSRALKTAQNARALKIKLTNKHFPCLTVSVELLSMSSSSRIVTHDIPIKVIPRKLWKDLQEPVVPDPDVSIYLPVLKTMKSVVEKMKNISNHLVIEANLDGELNLKIETELVCVTTHFKDLGNPPLASESTHEDRNVEHMAEVHIDIRKLLQFLAGQQVNPTKALCNIVNNKMVHFDLLHEDVSLQYFIPALS
B3: the binding result is given as “binds”.

B4: GST-hHus1 V137A (natural protein, human, UniProt O60921 1-280, looked up)
chain: B3 chain with V137A
With B4, the binding result is given as “binds”.

B5: GST-hHus1 K136A (natural protein, human, UniProt O60921 1-280, looked up)
chain: B3 chain with K136A
Consider B5, for which the binding result was “binds”.

B6: GST-hHus1C (residues 147-280) (domain or fragment, human, UniProt O60921 147-280, looked up)
chain: QEPVVPDPDVSIYLPVLKTMKSVVEKMKNISNHLVIEANLDGELNLKIETELVCVTTHFKDLGNPPLASESTHEDRNVEHMAEVHIDIRKLLQFLAGQQVNPTKALCNIVNNKMVHFDLLHEDVSLQYFIPALS
Turning to B6, the binding result was “binds”.

B7: GST-hHus1N(+) (residues 1-155) (domain or fragment, human, UniProt O60921 1-155, looked up)
chain: MKFRAKIVDGACLNHFTRISNMIAKLAKTCTLRISPDKLNFILCDKLANGGVSMWCELEQENFFNEFQMEGVSAENNEIYLELTSENLSRALKTAQNARALKIKLTNKHFPCLTVSVELLSMSSSSRIVTHDIPIKVIPRKLWKDLQEPVVPDPD
Consider B7, for which the binding result was “binds”.
